Test: soluble fraction after stress (log2 fold change); higher = more stays soluble; pooled small domains, quantitative proteomics
Conditions: stress: pH 4
Summary of the method: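 Following acid stress at pH 4, the amount of each small protein domain still soluble was measured in pooled custom libraries by high-throughput quantitative proteomics. Its fold change, on a log2 scale, is higher when more of the domain stayed soluble. This fold change is taken as a measure of aggregation propensity.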

First: HMDDPQAELLARAVRRVALAAAERTRRNEYGGVYLGLFRQFGISSYRRTPPARLHEALEWLERWRGDLM
Second: HMDDTVILPIQINGKRRAEISVPKAMPASEVEKLALANEDVLRFLAGQPIKKLIVVPGRIINVV
The “soluble fraction (log2)” value of the first is lower: -0.378 for the first, at least 0.43 for the second.

“HMDDVGERIRKIREEKNLSLDEISKMTGFDVEFLAKIENKERQPQLGTVIKLSKALDSAFGRL” and “HMDDVGYLRKRLQQALAQLSDDLRNTYTLFQIGKQSIKQIAAETGASESLVKVRIHRAKQKLQELLADLQ” are within 0.2 log units of each other in “soluble fraction (log2)” value: -0.0445 for the first, -0.054 for the second.

“HMDEDLQEALRKLNPIQANERKLLLKMLEQHRWNVSSVAKAFDVSRNTLYRRLHKLHIPLSNPSE” and “HMDEEAIELTQEVMKLPPKQREVILLYYYHGLTGKEIAKALGISGAAVSKRLKQAKNQLHFALK” are within 0.2 log units of each other in “soluble fraction (log2)” value: 0.172 for the first, 0.0819 for the second.

First: HMDEEVLVVQEGGERLDVFVAANAEGITRSFVQNLIKKGDVTVDGAPRKANYRLRSGQVVRFSLPEP
Second: HMDEFEEGVITYFNSEKGFGFIRESKTKQSVFVHSKQLSSPVQLNDKVKFIVNKGLKGLEATEVSVI
The “soluble fraction (log2)” value of the first is lower: 0.293 for the first, at least 0.43 for the second.

Going from “HMDEFQLTPREQEILGLLVKGYTYKRIASELNLSYATVNRHVSNVYVKLRVHSVNEAVALAVRKGL” to “HMDEKLAHKLVSDFRQAAASLERFPFRNPVLRSEVFTVEKYRKLVFDKYHILLYQVKDQVVYVEYVIDGRQ”, the “soluble fraction (log2)” value rises from -0.543 to at least 0.43.

Going from “HMDEKVTIPSVSGLLLSEAKTKLVDAGLTVETVYDDESKEAKDTVLSQSPLQYGKVDKGTVVTLTVSSGKG” to “HMDELPKDILRSFGLPDKPWAMELLRNLRRDGFALDGETARAYAEMAAMKPPRTDARQWMTAADVAYRRG”, the “soluble fraction (log2)” value falls from 0.417 to 0.105.

Going from “HMDEMPVEFVKISIKAGHPWENRKIKDLASLPDLLLVLILRGEERIIPNGNTVVLAGDKIVLSALSPE” to “HMDENILKTRIEDLDLSVRTIKALTGASIRTVSGLARKKESDLLEISGLGDKGIQEIKRALGSLGITL”, the “soluble fraction (log2)” value rises from -1.94 to -0.0429.

“HMDENTEQESQTVVVPDVTGKSLSEAASILREAGLDYLAEQTGTVVTKQMPLPDAEVLINTTVLLYTDSE” and “HMDEPSITYGKVKVQTSLNVRQGPGTQYARIGSLGPNVRIQILGQEGQWYKIKYGNLQGYVHSDYVELEK” are within 0.2 log units of each other in “soluble fraction (log2)” value: -0.456 for the first, -0.376 for the second.

First: HMDEQKNREIALIENIQREDLNPYEKALGIRNLMDKYGLTQEEVSKRIGKSRSAVSNTVRILNLAPDVL
Second: HMDEQLAWLYRKINAFSEIDKALILLYLEDKKYDEIAETLGISSVNARVKMNRIKKRLKEMINDR
The “soluble fraction (log2)” value of the first is higher: -0.0309 for the first, -1.02 for the second.

Going from “HMDEQVETLKNLISELPKEQLEVLVMRHYEDLSFKEISEKTGVSINTALGRMRYALINIRKLMKENN” to “HMDESLIEEAKAMILQMKIEGSVRVRSNGLLEFRNPLFGSVYGRSVEELQEKLNKKVREQKSRI”, the “soluble fraction (log2)” value rises from -0.488 to 0.194.

Compared with “HMDEVPMPPEYQYLRVGSRVHHATFGWGKVTRLSQPWPQTRAEVFFENIGPKKLVLAHAHLTMD”, “HMDEYTAVDSRLDLELAMKRLKPEEAEVLRLVFDYGLPQRAIAERLGVSQMSVSRMQRRAIGKLKRWLSDN” is lower in “soluble fraction (log2)” value: 0.113 for the first, -0.678 for the second.

Going from “HMDFKKKIIESWADIAETLRGLTVDSNISDWTTKQKNAYETLADKAELAGLSIADLNSILVELGYM” to “HMDFNDPTMEKSLVELPAMSNSTLRDLSENNIKKLEELAEMSVGELMDIASKISESDASALIMEARKPWF”, the “soluble fraction (log2)” value falls from -0.378 to -0.741.

Compared with “HMDFRVGVWVELVQQRRSVRTQLTWVSPQHTLFLFTAKDGSTQSMTLRMRDKLLAEGNLRIVAPPSR”, “HMDFSENEPVTVRVLSILKNNTIRIAVKGAVLQAQTALSQDIREGAFLLMRVHITDNTVVLTPY” is lower in “soluble fraction (log2)” value: 0.22 for the first, -0.193 for the second.

“HMDFSNVNFSQVSDSELDLLMRRASAQGYTQFDLLKIARAQGLTQAEIEKLDKRFKSAETVAYVAENA” and “HMDFTHFTLKQDGKFAGSSNLLHQAVIAAARLAAETGKPVTVMAHVRGGGTRKAVFNPDGTNDKIWN” are within 0.2 log units of each other in “soluble fraction (log2)” value: 0.0811 for the first, -0.0338 for the second.

Compared with “HMDGAPVTVIKNGEVDVATTMRVGLSASELMFKLRAAGVDEVQIVHRAVLEQNGQLTIIKYGEE”, “HMDGASVQRITELTATLNRYRHEYYNLAKPSVSDAVYDRLFDELAALEQKTGIVLSNSPTQTV” is higher in “soluble fraction (log2)” value: -1.2 for the first, -0.759 for the second.

First: HMDGFVFVMPIKETRMFSVNDERPLVGIVKYSNGEFEKEQLIGFRPNSEYEFIIEGQRLYRVPVNSITIK
Second: HMDGIRLYPGLMIEHKNFGRGQVVSVNRERGTFTAFFGKNGTRTLTIQILKTDTVRPLASQKAGK
The “soluble fraction (log2)” value of the first is lower: -1.25 for the first, -0.405 for the second.

Compared with “HMDGKPSLIISNGQINYKEMVKLRYSLEDLLFQLRQNSIKSIEEVEYAFLESNGKLSIFPYNFL”, “HMDGLGLGAVILAQRKRQGWTQEDLAARIGVSKGAVSKWETGQSYPDLPLVPRLAALFHITVDELLDYR” is higher in “soluble fraction (log2)” value: -1.65 for the first, 0.263 for the second.

“HMDGLIRLNKLLATLGVESRRHAEEMIIAGRITVDGVTATEKGQKVRRGAVIKVDGVEVGPPP” and “HMDGQPQLLIKNGQLLVSTALKNGMSANDLMFRLRTEGITDIRYVKRAVLEQNGQLTITQVGDD” are within 0.2 log units of each other in “soluble fraction (log2)” value: 0.0501 for the first, -0.0398 for the second.

Compared with “HMDGVTEYTVKSGDSFSAIINKHYNVNYDEKLMQAVAAYNNIEDMNKLQLGQIIKLPPKEQLNL”, “HMDGYVPAERIASEVGVSARTITREMHGLEMTLMPYGIALLRRTGAGFMLAGTAKALADLRKHMTEDADTQ” is higher in “soluble fraction (log2)” value: -0.118 for the first, 0.167 for the second.

First: HMDHAHWEEHEVKLLLTLAIQEKEKFNWNQFGLTREGWRNIYPHFPQYSRKQINNKFDFLKQKYRAWKDS
Second: HMDHAVINSEEVTIKDLSEKIGVSAAEIIKALFTEGIIKTINDKIEYEYAQYVAGMFGVELTLKL
The “soluble fraction (log2)” value of the first is lower: -1.09 for the first, 0.188 for the second.

Going from “HMDIANEQEQIFITAMRNDDFNPILELKMKGYQPSKNVLKSLQPDVSSTTFIAAAKIFQMEGVL” to “HMDIASNQIQGIKDSVGGDENYSKMVAWALESLPAEEVKAFNDLTETANAPAIKMAVQGLYSQYNNAM”, the “soluble fraction (log2)” value rises from -1.31 to -0.9.

Compared with “HMDIDGVSENGRLILAALDKEALDFDTLAAETGIQESRLRTELTLLEIRKLIMKLPGQRYRLI”, “HMDIDNDIIENILVMGVTKAIAINLSNEFERHRIIANIEYAKEKSKNSEIKNISAFTVEAIRQDYANS” is lower in “soluble fraction (log2)” value: 0.28 for the first, -1.12 for the second.

Compared with “HMDIEITIPPEAKELDVSKILISGNIITDEQEFLDYLKQNNVAAFKDGNYKLNKNMTTEEIVNQIK”, “HMDIESREAWVDASGMGVRLDRWLTQLAPEFSRNHLQSLIERGAVRVDGQPALVASRKLRIGQQVAVSLIP” is higher in “soluble fraction (log2)” value: -1.2 for the first, -0.0568 for the second.

Compared with “HMDIEVEVPNLVGMSLDEAKSIIQSMGLVVGLTIEDPSAKVSDNSVTKQKPTYQTGVKLRSGDMIDIWYAG”, “HMDIFSSFVAIKNANVRELPTAKSAQVATLSKGSEVTALGKVKGKNWYLVARDGKELGYVFGSLIAEAET” is higher in “soluble fraction (log2)” value: -0.676 for the first, 0.143 for the second.

First: HMDIINLADNIARLRRRRQITQEELADYLGVTKAAVSKWENRQTMPDILLLPRLAGLFEVTIDELVGY
Second: HMDIKDRSGVTIDESNEAQQESIIRESWAEQKISGNVDNYIAYLKANGMLLETAKIELAALQEKDASLRE
The “soluble fraction (log2)” value of the first is lower: -1.72 for the first, -0.78 for the second.

Compared with “HMDILEVLIKKDLAMELLEQLTERQRTVVYLRYFYQLNQKEIADYLGISQQRVSEILSRAKAVLTAYTKK”, “HMDILPEGNYKVNYDVIDEVGNIVANKNDIVVTEKSIKPLNTILGIDLYEVIHSQTGKYFTINGDNLTN” is higher in “soluble fraction (log2)” value: -0.878 for the first, -0.328 for the second.

Going from “HMDINLGIGPLVKKYRTIKGYSIRELARNINVTASMLSQIERDIVNPSINTLKAISVELGVPMYKFFM” to “HMDINLSENLVRLRHAKKLTQEQLADFLGVTKASVSKWETRQSLPDILLLPRLAAFYGVTVDELIGYEP”, the “soluble fraction (log2)” value rises from -0.217 to at least 0.43.

Compared with “HMDISKTLGKNPLLIIDNIEYRGKTLDEITAMTGVKRFENIDIYGSEEAMKTYGEKAKDGVIIAYTT”, “HMDITGIGIKKRIKAIIDSEDKKNPLSDTQIVEILKNEGLEISRRTVAKYRSDLQIPSSSKRKK” is higher in “soluble fraction (log2)” value: -0.62 for the first, 0.335 for the second.

Compared with “HMDIVEIYVGEEDGERIDSYLAQELNNVSRSYVQGLIKNQLITVNGNHVKPKHIVKEGEHIIVNIPPPKV”, “HMDIVENSMPNVVGLELNRAKELMTQLGFTNVRYEPTESSRPENEVVYQSVDKDETLDVSSEIIIQYSSGV” is lower in “soluble fraction (log2)” value: -0.108 for the first, -0.535 for the second.

First: HMDKEKLQEKLLQIFEAEPQKKFQVQDLVKVLDMEGAGQFKFVVQALADLEHNKQIKLSEDDTFSLIVKE
Second: HMDKENVLQLQKDLLRLSVNALEKRYYQFSDILLLKYILPLVPKEISIDDQSRLRSLLSGIN
The “soluble fraction (log2)” value of the first is higher: 0.22 for the first, -0.754 for the second.

Compared with “HMDKEPTHLHTFRLIKEGKSSEEIAEIRNITLGTVNTHLAKLIAVGELTIEQVISKHRLDYVMEAIKNSK”, “HMDKKIVGVNAGKVWQALNEVTEISIVELAEKLNLSVESTALAAGWLAREDQISIERKNGTIELQRKN” is higher in “soluble fraction (log2)” value: -0.825 for the first, -0.177 for the second.

Going from “HMDKNNLLIIYRTNSEGTPYAFSVTPSAKSLDALHKDAKEMLPFLEKSMNNFFSIQIWERAEYLKY” to “HMDKPGMRLNQFIAHSGISSRREADNLIKAGLVQVNGKIIVEMGFRVMPTDIVKFNNETIAS”, the “soluble fraction (log2)” value rises from -0.379 to 0.378.

First: HMDKPIVFLEDTKAHKSSDLQSPVYMTVPKGTIAFVIAEKGDWSQVYAGRVLDRNLASQWVRRGFS
Second: HMDKSLDFASIKSVEIATGRKFGWHALKKWSKSNSSEIKTIPDPNFGEVKTYHKDAWLAVYNINLSPILD
The “soluble fraction (log2)” value of the first is higher: 0.191 for the first, -0.0629 for the second.

First: HMDKSPMIGTAEYEGVLYWRQTKDNGATWEWITDKNGDKMPVSGPAPAVGIDKDGYWTVNGESTGVLAKD
Second: HMDKVSYALGLGIGRQLTDMGAKDLNIDDFAQAIKDVLAGGEVKLSDAEAQTIVRNFFDEQEKKQRA
The “soluble fraction (log2)” value of the first is higher: -0.0267 for the first, -0.637 for the second.

Compared with “HMDLANLQNGQTLPLQRDVEVISIPFGKTISLSEDSVVSIMQAKGSSVSVAYEGRLYLIEGSNLDALGLEP”, “HMDLANRSLDRGITILESLARNGASSLADLHRDSGIAKSTIRRLLGTLIQHRLVRRSVADGLYRVTIPLPA” is higher in “soluble fraction (log2)” value: -0.888 for the first, 0.025 for the second.

First: HMDLDIQNYNLDEILELFKVSYDFDETELKKAHKMYLMTHPDKSNLNPNIFLFFVQAYDILRKLYEFR
Second: HMDLDIRDDIYRANIPNDYKLQQMQNNIDYDKVLTGYYNNRPEANVIANRTLQLANDVYNRD
The “soluble fraction (log2)” value of the first is lower: -1.66 for the first, -0.296 for the second.

“HMDLDLNIDNYNFDDLLNLFGLKMKFSEDDLKKAKRSVLMTHPDKSGLDKQYFMFFTKAYKMLSQIYYFR” and “HMDLDPNKPAIPIAYPRVLLNIMAEKGFSRTEVLAGSGLADSVFDKPDHRITPAQFLFILMNSFYLS” are within 0.2 log units of each other in “soluble fraction (log2)” value: -0.779 for the first, -0.631 for the second.

With “HMDLFLVYQFIRRLATPFTEWKAHELGIIDDKGVQLKKRRDFTTREEKDAYGIFDIMITKLKRLIEKV” the “soluble fraction (log2)” value was -1.04.
